{"source": "the DeepSol protein solubility set", "data": [{"assay": "soluble on expression in E. coli; label from the status in PepcDB or PDB records", "values": [{"sequence": "MGSDKIHHHHHHMCPARLRTPRTASLPTHRRSAMTTANPLNTSFTSADAAELYQVPNWSGGWFRVSDKGLMEATPAPGLHASLRAIVDEIVDRGESLPVILRFPQVLAGRVKHLNEAFQAAINEYNYSGHYQGVFPIKVNQRRAVVETVAAAGYDYAHGLEAGSKAELALCLAQKMHPDALLCCNGFKDDGFIKLALWGRTLGKNVVITIEKFTELDRILKQAKALGVKPAVGVRFKLHARGSGQWEESGGDQAKFGLNAYELLRVVERLKEENMLDSLVMLHTHIGSQITDIRRVKVAVREAAQTYAGLIAAGADLKYLNVGGGLGVDYDGSKTTFYASMNYTVKEYAADIVYTVQEVCKAREVPEPVIVSESGRALTAHHAVLILPVVDVTGPTRNLEDQELTVPGEDSHQIVRDMYETLENISMRNYRESYNDAVGDKQTLHNLFDLGYVTLEDRARGEALFNAILRKIAKLIQGEKYVPDELEDLQKVLADKFICNFSLFQSLPDNWAIGALFPIVPLDRLNEQPTRQATLVDITCDSDGKVEKFIDLRDVKATLPLHEPGDRPYYLGAFLMGAYQDVLGSAHNLFGKVSEAHVTVRPGGRFNIDLFVRGQKARRMIESMGYEEPMLRDAIEDQADAAIGRGTLTQEQEHELLEDYGEELLGYTYLEYES", "soluble on expression in E. coli": "not soluble"}, {"sequence": "MGSDKIHHHHHHMDDTTFLSTKEKILEIKPLMESAFGNILGYQELENMLAICTLVPFSNNQILFHQGDRIKGIYIIIKGTVDLIARTLGKGITKIETCLASDFLGETSFLLNEPSATSAVAKDNVTCLFIPSAYFELMPAFSPEAKYKIMKAIGYQACGRLKQLHDKIIDFISHSDMQSLSFLGRVIQTFTQPKIHTLDESGVDKDQIYKKTLFNSFTQDETDELLEHAIPLTANKNCVLIHENETIPVCYIVIYGAVQSNVIQNSKIAKLSVIGPDSLFASTACFLSDTKFSITFITCESATLLKISEAELQYFQKNKPMIWYKLFNLICGSIISLARSLKKLDVRLNIEKYNQ", "soluble on expression in E. coli": "not soluble"}, {"sequence": "MGSDKIHHHHHHMDEIVKVLSQHDRILVVGHIMPDGDCVSSVLSLTLGLEKLGKEVKAAVDYKIPYVFEKFPYIDKIEENPNFDPELLVVVDASSPDRIGKFQDLLDKVPSVVIDHHSTNTNFGNWNWVDPSFAATAQMIFRINKALGVEYDSNLATLNYLGIATDTGFFRHSNADVRVFEDAYKLVKMGADAHFVAKEILENKRFEQFKLFAEVLERLQLLENGKIAYSYIDYDTYLRHNCTDEDSAGFVGELRSIRGVEVAVLFMEFPRGKIHVSMRSKDWFNVNEVAFELGGGGHPRAAGVTFEGKKIEEVIPRVINHLLKKFKEGVESESEKIPEGDVLGG", "soluble on expression in E. coli": "not soluble"}, {"sequence": "MGSDKIHHHHHHMDENEFDNQRENKAVARVIISFLKYEEYALKEIYNLRVKKWASISDRQKDMVPNYTKYLANLKAAIIENGKFFRSVAEYALQSISFEPGEIVQPNDLDMSKTCSLLTQVYREWSAEAISERNCLNSRLVPFLKTLSPPKADILIPGCGTGRLLVDLSRMGYNCEGNEFSYHMLLVSQYMLNAGLLQNQIIIYPFIHCFSHWKKIEDQLSPIKVPDIEAWSSNKGMGSMSICAGSFVDCYGRNQGTKISSHYTFSRRMQLSRAKAENSKDVVVTNFFIDTGSNILDYLDTIGHVLKPGGIWCNFGPLLYHFENDHGVETTYEVNPYSGFQDKINDYTPLMGLELSSDDIISIATNHLDFELIRRESGILCGYGRYAGPESCAMPGYMCHYWILKSNPTNES", "soluble on expression in E. coli": "not soluble"}, {"sequence": "MGSDKIHHHHHHMDFALEQYHSAKDLLIFELRKFNPIVLVSSTIVATYVLTNLRHMHLDEMGIRKRLSTWFFTTVKRVPFIRKMIDKQLNEVKDELEKSLRIVDRSTEYFTTIPSHSVGRTEVLRLAAIYDDLEGPAFLEGRVSGAVFNREDDKDEREMYEEVFGKFAWTNPLWPKLFPGVRIMEAEVVRMCCNMMNGDSETCGTMSTGGSISILLACLAHRNRLLKRGEKYTEMIVPSSVHAAFFKAAECFRIKVRKIPVDPVTFKVDLVKMKAAINKRTCMLVGSAPNFPFGTVDDIEAIGQLGLEYDIPVHVDACLGGFLLPFLEEDEIRYDFRVPGVSSISADSHKYGLAPKGSSVVLYRNKELLHNQYFCDADWQGGIYASATMEGSRAGHNIALCWAAMLYHAQEGYKANARKIVDTTRKIRNGLSNIKGIKLQGPSDVCIVSWTTNDGVELYRFHNFMKEKHWQLNGLQFPAGVHIMVTMNHTHPGLAEAFVADCRAAVEFVKSHKPSESDKTSEAAIYGLAQSIPDRSLVHEFAHSYIDAVYALTE", "soluble on expression in E. coli": "not soluble"}]}]}
